Among the data in paper doi:10.1101/2022.03.10.483824 are maximum AM detachment rate (kcat, values, retold here.

The assay deals with Full length native cardiac myosin II from rabbit heart ventricle (rabbit) (UniProt P04461). Nature of the assay: optical trapping.

“Biotinylated actin filament (chicken G actin polymerised with biotinylated G actin) (from UniProt P68139 1-377) (natural protein)” returned a maximum AM detachment rate (kcat, at saturating ATP) of 88.2 s⁻¹.
